Reference: article PMC3218035, “Nuclear Exportin Receptor CAS Regulates the NPI-1–Mediated Nuclear Import of HIV-1 Vpr” (PLoS ONE, 2011)

How the values were obtained:
[1] = target: T1, Qip1 (importin α3), full-length, GST cleaved (human, UniProt O00629 1-521); assay: SPR; settings: both partners purified
T1 construct: also called Qip1_(full); full-length Qip1; source: E. coli BL21 CodonPlus (DE3)-RIL, purified (Glutathione Sepharose 4FF), GST cleaved with PreScission protease
T1 sequence (looked up): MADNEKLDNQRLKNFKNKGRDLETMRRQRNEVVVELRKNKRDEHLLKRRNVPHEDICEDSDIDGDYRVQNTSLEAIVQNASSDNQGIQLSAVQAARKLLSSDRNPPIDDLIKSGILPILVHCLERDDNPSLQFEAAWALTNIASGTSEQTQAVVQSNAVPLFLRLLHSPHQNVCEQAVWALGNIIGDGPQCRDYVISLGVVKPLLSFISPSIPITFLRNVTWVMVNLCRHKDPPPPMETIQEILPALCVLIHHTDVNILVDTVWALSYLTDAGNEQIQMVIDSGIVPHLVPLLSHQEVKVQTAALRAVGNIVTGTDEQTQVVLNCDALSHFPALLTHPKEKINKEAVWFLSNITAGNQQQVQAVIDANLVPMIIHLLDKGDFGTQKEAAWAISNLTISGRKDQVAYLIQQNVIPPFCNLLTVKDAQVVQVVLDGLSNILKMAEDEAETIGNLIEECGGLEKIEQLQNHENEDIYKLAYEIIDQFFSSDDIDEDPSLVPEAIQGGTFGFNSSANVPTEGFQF

[2] = target: T2, NPI-1 (importin α5), full-length, GST cleaved (human, UniProt P52294 1-538); assay: SPR; settings: both partners purified
T2 construct: also called NPI-1_(full); full-length NPI-1; source: E. coli BL21 CodonPlus (DE3)-RIL, purified (Glutathione Sepharose 4FF), GST cleaved with PreScission protease
T2 sequence (P52294 whole entry): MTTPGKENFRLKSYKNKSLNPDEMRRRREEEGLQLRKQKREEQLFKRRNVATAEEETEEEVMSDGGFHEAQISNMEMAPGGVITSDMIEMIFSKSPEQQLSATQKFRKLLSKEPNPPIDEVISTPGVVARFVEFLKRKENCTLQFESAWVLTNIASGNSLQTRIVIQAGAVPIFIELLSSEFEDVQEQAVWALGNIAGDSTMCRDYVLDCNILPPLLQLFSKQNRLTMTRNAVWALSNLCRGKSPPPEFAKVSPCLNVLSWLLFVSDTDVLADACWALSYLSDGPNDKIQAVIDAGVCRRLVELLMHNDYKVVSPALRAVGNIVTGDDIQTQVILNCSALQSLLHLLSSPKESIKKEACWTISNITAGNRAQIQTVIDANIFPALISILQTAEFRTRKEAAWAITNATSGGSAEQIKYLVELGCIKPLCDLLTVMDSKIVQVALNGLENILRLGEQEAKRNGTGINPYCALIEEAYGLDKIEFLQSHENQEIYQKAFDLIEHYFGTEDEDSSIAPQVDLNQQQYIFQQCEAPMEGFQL

[3] = target: T3, Rch1 404–529 C-terminal peptide mutant, GST cleaved (human, UniProt P52292 404-529); assay: SPR; settings: both partners purified
T3 construct: also called Rch1 C-terminal peptide; source: E. coli BL21 CodonPlus (DE3)-RIL, purified (Glutathione Sepharose 4FF), GST cleaved with PreScission protease

[4] = target: T4, Qip1 392–537 C-terminal peptide mutant, GST cleaved (human, UniProt O00629 392-521); assay: SPR; settings: both partners purified
T4 construct: also called Qip1 394–521 (methods); source: E. coli BL21 CodonPlus (DE3)-RIL, purified (Glutathione Sepharose 4FF), GST cleaved with PreScission protease
T4 sequence (looked up): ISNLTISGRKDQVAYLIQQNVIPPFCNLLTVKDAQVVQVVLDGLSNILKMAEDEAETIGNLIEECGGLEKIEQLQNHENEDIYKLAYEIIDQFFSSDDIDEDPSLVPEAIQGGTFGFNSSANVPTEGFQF

[5] = target: T5, NPI-1 404–541 C-terminal peptide mutant, GST cleaved (human, UniProt P52294 404-538); assay: SPR; settings: both partners purified
T5 construct: also called NPI-1 406–538 (methods); source: E. coli BL21 CodonPlus (DE3)-RIL, purified (Glutathione Sepharose 4FF), GST cleaved with PreScission protease
T5 sequence (P52294 404-538, change not shown): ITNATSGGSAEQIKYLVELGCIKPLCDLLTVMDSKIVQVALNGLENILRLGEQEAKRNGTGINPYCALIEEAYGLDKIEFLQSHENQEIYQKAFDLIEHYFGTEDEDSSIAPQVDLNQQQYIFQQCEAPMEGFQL

[6] = target: Rch1 (importin α1), full-length, GST cleaved (human), P52292; assay: SPR; settings: remark: other sources report otherwise
[7] = target: T6, GST-tagged NPI-1 (importin α5), full-length (human, UniProt P52294 1-538); assay: pull-down; settings: both partners purified
T6 construct: also called GST-NPI-1; SPR1; source: E. coli BL21 CodonPlus (DE3)-RIL, purified (Glutathione Sepharose 4FF)
T6 sequence (P52294 whole entry): as the sequence (P52294 whole entry) above

B1: GST-tagged-Vpr (natural protein)
chain: MEQAPEDQGPQREPYNEWTLELLEELKSEAVRHFPRIWLHNLGQHIYETYGDTWAGVEAIIRILQQLLFIHFRIGCRHSRIGVTRQRRARNGASRS
notes: also called GST-Vpr; source: E. coli, purified (GSH system, His-Trap column), dialyzed against transport buffer
Q: What does the source list for B1?
A: Kd [1]: 6.8 µM; Kd [2]: 7.4 µM; Kd [3]: 4.3 µM; Kd [4]: 6.5 µM; Kd [5]: 6.7 µM; Kd [6]: 8.9 µM

B2: cellular apoptosis susceptibility (CAS) protein, recombinant (natural protein, UniProt P55060 1-971, looked up)
chain: MELSDANLQTLTEYLKKTLDPDPAIRRPAEKFLESVEGNQNYPLLLLTLLEKSQDNVIKVCASVTFKNYIKRNWRIVEDEPNKICEADRVAIKANIVHLMLSSPEQIQKQLSDAISIIGREDFPQKWPDLLTEMVNRFQSGDFHVINGVLRTAHSLFKRYRHEFKSNELWTEIKLVLDAFALPLTNLFKATIELCSTHANDASALRILFSSLILISKLFYSLNFQDLPEFFEDNMETWMNNFHTLLTLDNKLLQTDDEEEAGLLELLKSQICDNAALYAQKYDEEFQRYLPRFVTAIWNLLVTTGQEVKYDLLVSNAIQFLASVCERPHYKNLFEDQNTLTSICEKVIVPNMEFRAADEEAFEDNSEEYIRRDLEGSDIDTRRRAACDLVRGLCKFFEGPVTGIFSGYVNSMLQEYAKNPSVNWKHKDAAIYLVTSLASKAQTQKHGITQANELVNLTEFFVNHILPDLKSANVNEFPVLKADGIKYIMIFRNQVPKEHLLVSIPLLINHLQAESIVVHTYAAHALERLFTMRGPNNATLFTAAEIAPFVEILLTNLFKALTLPGSSENEYIMKAIMRSFSLLQEAIIPYIPTLITQLTQKLLAVSKNPSKPHFNHYMFEAICLSIRITCKANPAAVVNFEEALFLVFTEILQNDVQEFIPYVFQVMSLLLETHKNDIPSSYMALFPHLLQPVLWERTGNIPALVRLLQAFLERGSNTIASAAADKIPGLLGVFQKLIASKANDHQGFYLLNSIIEHMPPESVDQYRKQIFILLFQRLQNSKTTKFIKSFLVFINLYCIKYGALALQEIFDGIQPKMFGMVLEKIIIPEIQKVSGNVEKKICAVGITKLLTECPPMMDTEYTKLWTPLLQSLIGLFELPEDDTIPDEEHFIDIEDTPGYQTAFSQLAFAGKKEHDPVGQMVNNPKIHLAQSLHKLSTACPGRVPSMVSTSLNAEALQYLQGYLQAASVTLL
notes: also called CSE1L; source: E. coli BL21 CodonPlus (DE3)-RIL, purified (Glutathione Sepharose 4FF)
Q: How did the “mRFP-Vpr bound to GST-NPI-1 with CAS and Q69LRanGTP, fold of the sample without CAS” value [7] turn out when B2 was run?
A: Its value is 0.2 fold.
